Earlier results in paper PMC10539808.

Target: Lys66 (UniProt position 148, FTKKMKENAKK)
Conditions: not stated (quoted literature value; no ligand mentioned)

For “Staphylococcal nuclease (SNase), Delta+PHS/V66K variant (Staphylococcus aureus; P117G;H124L;S128A;del44-49;G50F;V51N;V66K)”, the pKa is given as 5.7 and ∼ 5.6.
